Source: patent US20200087373A1 (UNIVERSITY OF COPENHAGEN, published 2020)
Where “and” joins values, the source holds several entries; their conditions need not be identical. Equal entries are not always repeated. Ends that are not written are not given here. * marks the point of attachment. C16 diacid = O=C(O)CCCCCCCCCCCCCCC(=O)*

B1: AT127 [hGIP(5-30)NH2-C18/5] (peptide)
peptide: {C18 fatty acyl}-TFISDYSIAMDKIHQQDFVNWLLAQK-NH2
B2: AT156 [hGIP(5-30)NH2[H18K]-C16diacid/18] (peptide)
peptide: TFISDYSIAMDKIK(C16 diacid)QQDFVNWLLAQK-NH2
modifications: N-terminus assumed
SMILES: CC[C@H](C)[C@H](NC(=O)[C@H](CO)NC(=O)[C@H](Cc1ccc(O)cc1)NC(=O)[C@H](CC(=O)O)NC(=O)[C@H](CO)NC(=O)[C@@H](NC(=O)[C@H](Cc1ccccc1)NC(=O)[C@@H](N)[C@@H](C)O)[C@@H](C)CC)C(=O)N[C@@H](C)C(=O)N[C@@H](CCSC)C(=O)N[C@@H](CC(=O)O)C(=O)N[C@@H](CCCCN)C(=O)N[C@H](C(=O)N[C@@H](CCCCNC(=O)CCCCCCCCCCCCCCC(=O)O)C(=O)N[C@@H](CCC(N)=O)C(=O)N[C@@H](CCC(N)=O)C(=O)N[C@@H](CC(=O)O)C(=O)N[C@@H](Cc1ccccc1)C(=O)N[C@H](C(=O)N[C@@H](CC(N)=O)C(=O)N[C@@H](Cc1c[nH]c2ccccc12)C(=O)N[C@@H](CC(C)C)C(=O)N[C@@H](CC(C)C)C(=O)N[C@@H](C)C(=O)N[C@@H](CCC(N)=O)C(=O)N[C@@H](CCCCN)C(N)=O)C(C)C)[C@@H](C)CC
B3: AT188 [hGIP(5-30)NH2[A28K]-C16diacid/28] (peptide)
peptide: TFISDYSIAMDKIHQQDFVNWLLK(C16 diacid)QK-NH2
modifications: N-terminus assumed
SMILES: CC[C@H](C)[C@H](NC(=O)[C@H](CO)NC(=O)[C@H](Cc1ccc(O)cc1)NC(=O)[C@H](CC(=O)O)NC(=O)[C@H](CO)NC(=O)[C@@H](NC(=O)[C@H](Cc1ccccc1)NC(=O)[C@@H](N)[C@@H](C)O)[C@@H](C)CC)C(=O)N[C@@H](C)C(=O)N[C@@H](CCSC)C(=O)N[C@@H](CC(=O)O)C(=O)N[C@@H](CCCCN)C(=O)N[C@H](C(=O)N[C@@H](Cc1c[nH]cn1)C(=O)N[C@@H](CCC(N)=O)C(=O)N[C@@H](CCC(N)=O)C(=O)N[C@@H](CC(=O)O)C(=O)N[C@@H](Cc1ccccc1)C(=O)N[C@H](C(=O)N[C@@H](CC(N)=O)C(=O)N[C@@H](Cc1c[nH]c2ccccc12)C(=O)N[C@@H](CC(C)C)C(=O)N[C@@H](CC(C)C)C(=O)N[C@@H](CCCCNC(=O)CCCCCCCCCCCCCCC(=O)O)C(=O)N[C@@H](CCC(N)=O)C(=O)N[C@@H](CCCCN)C(N)=O)C(C)C)[C@@H](C)CC
B4: AT293 [hGIP(5-30)NH2[T5KK]-C16diacid/5] (peptide)
peptide: K(C16 diacid)FISDYSIAMDKIHQQDFVNWLLAQK-NH2
modifications: N-terminus assumed
SMILES: CC[C@H](C)[C@H](NC(=O)[C@H](CO)NC(=O)[C@H](Cc1ccc(O)cc1)NC(=O)[C@H](CC(=O)O)NC(=O)[C@H](CO)NC(=O)[C@@H](NC(=O)[C@H](Cc1ccccc1)NC(=O)[C@@H](N)CCCCNC(=O)CCCCCCCCCCCCCCC(=O)O)[C@@H](C)CC)C(=O)N[C@@H](C)C(=O)N[C@@H](CCSC)C(=O)N[C@@H](CC(=O)O)C(=O)N[C@@H](CCCCN)C(=O)N[C@H](C(=O)N[C@@H](Cc1c[nH]cn1)C(=O)N[C@@H](CCC(N)=O)C(=O)N[C@@H](CCC(N)=O)C(=O)N[C@@H](CC(=O)O)C(=O)N[C@@H](Cc1ccccc1)C(=O)N[C@H](C(=O)N[C@@H](CC(N)=O)C(=O)N[C@@H](Cc1c[nH]c2ccccc12)C(=O)N[C@@H](CC(C)C)C(=O)N[C@@H](CC(C)C)C(=O)N[C@@H](C)C(=O)N[C@@H](CCC(N)=O)C(=O)N[C@@H](CCCCN)C(N)=O)C(C)C)[C@@H](C)CC

Columns and labels:
human GIP receptor [1] = biological target: T1, human GIP receptor (human, UniProt P48546 22-466); assay: 125I-hGIP competition binding, COS-7 cells expressing hGIPR;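 note: nonspecific binding taken as radioligand bound by untransfected cells, binding buffer with or without 2% HSA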
T1 construct: whole, on cells; also called hGIPR
T1 sequence (looked up): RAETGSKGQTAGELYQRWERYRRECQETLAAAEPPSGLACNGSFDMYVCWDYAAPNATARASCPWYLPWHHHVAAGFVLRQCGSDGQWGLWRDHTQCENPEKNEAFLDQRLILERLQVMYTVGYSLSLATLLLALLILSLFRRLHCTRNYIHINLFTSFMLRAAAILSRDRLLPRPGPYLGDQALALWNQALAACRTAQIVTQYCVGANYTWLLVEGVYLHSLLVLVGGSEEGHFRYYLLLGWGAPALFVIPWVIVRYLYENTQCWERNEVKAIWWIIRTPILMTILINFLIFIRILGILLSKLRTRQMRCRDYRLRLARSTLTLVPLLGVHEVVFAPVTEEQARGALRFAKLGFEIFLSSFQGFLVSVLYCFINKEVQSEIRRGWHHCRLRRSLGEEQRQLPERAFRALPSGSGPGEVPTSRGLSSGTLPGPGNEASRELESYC
Procedure: (§1) After incubation, the cells were washed twice in ice-cold binding buffer (+/−2% HSA) and lysed using 200 mM NaOH with 1% SDS for 30 min. Nonspecific binding was determined as the binding of radioactive ligand to untransfected cells.

human GIP receptor [2] = biological target: T1, human GIP receptor; assay: 125I-hGIP competition binding, COS-7/hGIPR, 0.1% casein;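 note: nonspecific binding defined as radioligand binding measured on untransfected cells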
Procedure: as §1

human GIP receptor [3] = biological target: T1, human GIP receptor; assay: cell-based or functional assay

Row | Binder | IC50 (human GIP receptor [1]) [nM] | log IC50 (human GIP receptor [1]) | IC50 (human GIP receptor [2]) [nM] | logIC50 (human GIP receptor [2]) [log M] | cAMP agonism (human GIP receptor [3]) [nM] | cAMP agonism, EC50 (log) (human GIP receptor [3]) | cAMP agonism, Emax (human GIP receptor [3]) | cAMP antagonism (human GIP receptor [3]) [nM] | cAMP antagonism, log (human GIP receptor [3]) [log M]
1 | B1 | 2040 | -5.7 log M | 1470 | -5.8 |  |  |  |  | 
2 | B2 |  |  |  |  | 2 | -9 log M | 12 | 12 | -7.9
3 | B3 | 183 | -6.7 log M and -6.74 log M | 26300 | -4.6 | 152 | -7 log M and -6.8 log M | 10 | 152 | -6.8
4 | B4 |  |  |  |  |  |  | 0 | 14 | -7.8
